Columns and labels:
[1] = target: MrsD-protein A fusion protein (shared helix method) (not stated | Staphylococcus aureus); test: crystal structure; vapour diffusion; crystals of a single fusion protein
[2] = target: YgjG-protein A fusion protein (shared helix method) (E. coli | Staphylococcus aureus); test: crystal structure; vapour diffusion; complex of YgjG-protein A with ZpA963-PKA_C
[3] = target: YgjG-protein A fusion protein (shared helix method) (E. coli | Staphylococcus aureus); test: crystal structure; vapour diffusion; complex of YgjG-protein A with ZpA963-calmodulin; 5 mM CaCl2 in all buffers

| stoichiometry N [1] | stoichiometry N [2] | stoichiometry N [3] | Substance |
| --- | --- | --- | --- |
| 12 | – | – | MrsD-protein A fusion protein (shared helix method) |
| – | 4 | 4 | YgjG-protein A fusion protein (shared helix method) |

Source: paper PMC5454011
